Measured values published in the supplement of paper PMC12042874.
± gives the uncertainty stated by the source.

Experiment: amyloid nucleation score (Sup35N fusion, yeast selection) (log enrichment); library NNK2; higher = more nucleation; inactive = no reads after selection
How it was run: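 The nucleation score is a DiMSum log enrichment of output over input reads, centred on the mode score of non-aggregating sequences. Sequences under 100 input reads were excluded, and reads came from Illumina sequencing of plasmid inserts. Psi-negative yeast expressing Sup35N fused to peptides of 20 random codons were induced with 100 μM copper sulfate for 24 hours and grown 7 days at 30°C on medium lacking adenine and uracil. Random libraries had three technical output replicates.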

Substance	amyloid nucleation score
VLRHLD	0.44 ± 0.54
KFTLGHVNIVWNMVVYATQE	8.24 ± 0.083
HRYEKSAHTVVWSIMVFS	0.033 ± 0.45
GNLGSHYALGPLDRATRGER	0.632 ± 0.26
TRALDPVSVSRISVRQQPLA	1.12 ± 0.2
CTHNTSKVSKMVIVCPRFNL	6.218 ± 0.035
YRVVKPCWLHFGDLIVWTWC	0.351 ± 0.35
EVSNRCRRLSTRRVHSVLVG	1.13 ± 0.25
KLGLSSIHFSGSMFVRCTFC	4.503 ± 0.041
CYKWLAYY	-1.44 ± 0.75
RTTWPHLVGSRILFYTSHSM	-0.392 ± 0.63
AIWGTHPQRRDIRKRERIVV	-0.205 ± 0.27
CNRPGSGTHGRCTVMDSTMG	0.389 ± 0.56
ILDCLSYQLDDVVSAI	3.21 ± 0.046
FMRWSRISRSGYNDDGSLVG	3.52 ± 0.067
FRIKAEVGPIYTYDTGSFNW	-0.162 ± 0.27
RDSFRDTAYHELVYFTKNFR	inactive
VYNLN	-0.181 ± 0.41
LLCNWSPTLRHYFMRWDLGC	-0.901 ± 0.36
CITSSSLCSDPYLCLSAKNL	inactive
MSVKSEAGRRSLRMNSKTSR	0.078 ± 0.22
WNSIYGLAEMQVCWWFGWGC	-0.628 ± 0.41
HNLNKTGDKRFYTLFVSSPR	0.012 ± 1
STCIMDLSWCKVRRFGSTQV	-0.149 ± 0.79
VSEWFGTKGWRLDYLCLYWL	-1.03 ± 0.64
VSASEEVPAFCCVTVAQ	-0.195 ± 0.61

Substance	amyloid nucleation score
CAPQSGKLGG	1.01 ± 0.59
CYFCWDFLIGCNFTHNAQ	7.237 ± 0.063
SFRDLDAAVEEV	-0.225 ± 0.48
YIVYCLFDLLTPNKMWLSPQ	-0.661 ± 0.76
SKMICPHYK	5.69 ± 0.071
RLDSMMVAYNAT	0.724 ± 0.81
SGVAPVIMYCAIVCGGLHM	8.517 ± 0.067
QSVGATNLLG	0.501 ± 0.34
SKYGMFILGNRSNGDWFNMV	-0.673 ± 0.48
NRGWSFKLQWHYSLSYTS	4 ± 0.084
WLPLYMFQDQYLLKAPWISS	inactive
GKLRLLWKGITCVRAFANKL	-0.976 ± 0.34
NGGINNSWWGLIFLNLWPTI	-0.592 ± 0.79
GDMVIDLSKYITYSSL	1.37 ± 0.38
CVFISLNMNKIYMLDNSGQW	8.445 ± 0.036
IFVCAMV	0.395 ± 0.65
SELRTAKPVN	0.635 ± 0.26
MWRVWECGGRRDNLVRCPSR	0.774 ± 0.51
YAMCTWSV	1.88 ± 0.13
QKTWEIANCFAELEKKIRQG	2.4 ± 0.069
NIKSYVGYRNHFRVSLV	inactive
VGYFLSPMTVQLN	inactive
ISGVVFSTTRLLQFDGCRVG	1.31 ± 0.52
YFYCRYYMNRWNYYL	-0.396 ± 0.33
EFVLKSLTNLTEIKYAVSLE	2.09 ± 0.099
INWCYAPRLYFNHRWWDYCG	6.586 ± 0.054

Substance	amyloid nucleation score
YHMGDGLDVWGRDRSG	0.901 ± 0.27
FLWHCYNFLKAGS	inactive
RLVTWGISQNRLAQLY	-0.001 ± 0.33
NCSHGLHLNVFNLVPYKSLI	4.9 ± 0.096
SNCFNCYLISNWKYVTVSLS	6.23 ± 0.067
LSVSKSSIYLLLMRSRGHG	0.175 ± 0.55
SRAKMVFNFGAWFSRVCKN	2.42 ± 0.088
VPSSEYFIVFVCRPLLIVSL	inactive
VKAWYWLKARFVLWTVGARL	-0.093 ± 0.79
YWCFAI	-0.349 ± 0.26
RLQDNRDVATGH	inactive
KNYGYNIN	1.83 ± 0.17
EVSSGTCFGTS	0.084 ± 0.42
IDYVGYMKWMMV	0.016 ± 0.38
IISTIT	1.49 ± 0.14
VRKSHS	0.308 ± 0.42
SCLSGFTIWQVSLRYCASFG	0.312 ± 0.38
GFPVWVYYKMDLYCLSVKGI	-0.672 ± 0.61
PWCGRSMYSVSGKGQMWMRA	1.03 ± 0.4
EWVRWLVVLNLRSNAGNYDI	-0.953 ± 0.54
SPLVLGFSRK	-1.02 ± 0.76
RTIAVSQWLASHGTVLVWPD	inactive
HTKVRGKRLCGDWSVRISCS	0.733 ± 0.29
WGCQLRSMQTMTRHR	0.949 ± 0.74
SMFSRRNIQKSCFCYWNRLC	-0.418 ± 1.1
ASGKWHSCAGSGDYM	-0.453 ± 0.33

Substance	amyloid nucleation score
STVFYMNLQGVFRTVSWV	2.8 ± 0.18
VDISNFTVCRHAIKDLTFRV	0.149 ± 0.41
KITCVITNALCSLTERADR	9.394 ± 0.069
RRGIASILGHYRGTKMTGFD	0.135 ± 0.56
GNVLFAFTFSVCLKFLAFVF	-0.407 ± 0.64
KYCDWYL	-0.274 ± 0.22
MPSRYMIVMFNLTLPRRGVG	-0.226 ± 0.55
LTYACSWYQKSQFGSCLNEW	0.449 ± 0.26
NMNLVILDTHN	2.86 ± 0.13
FTTPSRS	0.623 ± 0.53
SSQTKYQAFRVQATGVCAWM	-0.123 ± 0.23
SILCLLNRLTFREYLMVFID	-0.583 ± 0.55
YIIPGLKFLS	inactive
SHFFAQPGNGMRWCVRIKVC	0.744 ± 0.8
SSLVWLKMNGNGTKTVFMN	1.24 ± 0.14
YGGPGRNKGPNSCRSTATSV	1.02 ± 0.17
GDKVACKEIWTVNVYVNTLG	0.229 ± 0.26
YGMQLFC	3.95 ± 0.082
MRCAPLMHHLARPASFRI	2.08 ± 0.096
PVGEEVADVMLTFYKHHLVD	-0.913 ± 1.1
LIFRAVWVVMSHHLTG	0.039 ± 0.42
CTVLSDRTCYSSTERLVRIH	inactive
RLYVTSYIY	3.26 ± 0.098
GYYMRLS	inactive
IVGVSFKSVNTNRIDPVFLF	inactive
LRFYERDILSILLFLMMMFV	-1.07 ± 0.63

Substance	amyloid nucleation score
GAELPKYESRLPFLSAGLRQ	-0.048 ± 0.53
YILLFSVGICPPRSWLIYCP	4.21 ± 0.11
FLPCL	-0.739 ± 1
RVKYLDDCQYMLFRWCRMFT	0.209 ± 0.29
LSLMTSLRWIGHSSFIVSKP	-0.168 ± 0.79
GSKSCRDYNIKFIYDRYFMG	inactive
KLGFWVGSWLSSRSVDCSCM	1.33 ± 0.35
HKEEV	0.163 ± 0.53
DLWGVI	8.81 ± 0.026
TWVGWS	-0.841 ± 0.79
NNGPSKT	0.51 ± 0.54
SKFYLKRKSDISYIYASPWR	1.94 ± 0.06
LGDERDADQIPSGIYG	1.26 ± 0.27
FEYLYYIDIYLWYCEGRVAK	-0.661 ± 0.54
LFHFGNCSRIRGWGICVTSL	-0.506 ± 0.55
VSYTHTETTPGLTSLWLVLM	6.89 ± 0.077
VDVHIIIMKPDSWVCPNRCS	inactive
RNSPVSLDVVSI	0.046 ± 0.49
TVSLYIDYPSVLGFPWSY	-0.952 ± 0.55
NYVCSWMLRFSVGRSQIPAV	-0.924 ± 0.76
VINRMCIVWPYMSSYWEWNV	9.126 ± 0.06
IGDYLRLELVL	0.187 ± 0.74
VCCRDKMSHCRSAALNMVLL	3.49 ± 0.12
